Data as given in patent US20240101667A1, “METHODS FOR IDENTIFYING LILRB-BLOCKING ANTIBODIES” (THE BOARD OF REGENTS OF THE UNIVERSITY OF TEXAS SYSTEM, priority 2020, published 2024).

Key:
[1] = tested on: MLL-AF9 AML cells; experiment: CFU assay of mouse MLL-AF9 AML cells; type: cell-based
Text: FIGS. 7A-N. Blocking anti-LILRB3 antibody prevents monocytic AML development. (FIG. 7A) Epitope binning of 30 high-affinity IgGs. (FIG. 7B) CFU assay of mouse MLL-AF9 AML cells in the presence of above IgGs (n=3 independent experiments). (FIG. 7C) Binding affinities of the two IgGs from bin #3. (FIG. 7D) Upper: Schematic of treatment. Lower: Percentages of GFP^+ MLL-AF9 mouse AIL cells in peripheral blood (PB), bone marrow (BM), spleen (SPL), and liver (LV) of mice transplanted with AML cells expressing B3-FL or B3delICD and injected with IgG or anti-LILRB3 #1 N297A (n=3 independent mice). (FIG. 7E) Overall survival of mice transplanted with indicated AML cells as above. (FIG. 7F) CFU assay of MLL-AF9 mouse AML cells expressing B3-FL or B3delICD in the presence of IgG or anti-LILRB3 #1 N297A (n=3 independent experiments) (FIG. 7G) Upper: Schematic of treatment. Recipient mice were injected with mouse IgG or anti-mCD8 to deplete CD8 T cells. Lower: Percentages of GFP^+ MLL-AF9 mouse AML cells in peripheral blood (PB), bone marrow (BM), spleen (SPL), and liver (LV) of mice transplanted with AML cells expressing B3-FL or B3delICD and injected with IgG or anti-LILRB3 #1 LALAPG (n=4 mice). (FIG. 7H) Survival of mice as in panel h (n=4 independent mice). (FIG. 7I) Upper: Schematic of treatment. Lower: Whole-body images of NSG mice transplanted with luciferase-expressing THP-1 cells and treated with IgG or anti-LILRB3 #1 N297A (#1NA). (FIG. 7J) Overall survival of the mice shown in panel h (n=3 independent mice). (FIG. 7K) Upper: Schematic of treatment. Lower: Whole-body images of NSG mice transplanted with luciferase-expressing Molm13 cells, injected with activated T cells, and treated with IgG or #1NA. (FIG. 7L) Luciferase signaling as a function of time in mice treated as described in panel k. (FIG. 7M) Overall survival of mice treated as described in panel k (n=3 independent mice). (FIG. 7N) Analyses of T cells in peripheral blood of mice treated as described in panel 1 at 22 days after Molm13 AML cell transplantation. Upper: Flow cytometry analyses. Lower: Plot of T cell percentages (n=3 independent mice). The data are presented as mean±s.e.m, and p values were calculated by two-tailed t-test except for FIG. 7E, FIG. 7H, FIG. 7J and FIG. 7M by log-rank test.
FIGS. S6A-J. Development of anti-LILRB3 blocking antibodies for suppressing AML development. (FIG. S6a) Upper: Flow chart of strategy for development of fully humanized antibodies against LILRB3. Lower: The identified antibodies were tested in the LILRB3 chimeric receptor reporter cell assay. (FIG. S6b) ELISA results for LILRB3 binders. (FIG. S6c) EC50 values of the anti-LILRB3 antibodies based on ELISA. (FIG. S6d) Affinities of antibodies #32, #33, #67, and #45 to LILRB3 as determined by Octet. (FIG. S6e) Cross-reactivity of the anti-LILRB3 antibodies with LILRAs evaluated with LILRA binding analyses. (FIG. S6f) Cross-reactivity of the anti-LILRB3 antibodies with other LILRBs evaluated with LILRB binding analyses. (FIG. S6g) Interaction with TRAF2 contributes to the effect of LILRB3 on AML development. […] (FIG. S6j) NF-κB signaling target gene expression (measured by qPCR) in THP-1 cells from BM of xenografted NSG mice treated with anti-LILRB3 #1NA or IgG (n=3 individual samples). […]

[2] = tested on: THP-1 cells; experiment: NSG mice xenografted with THP-1 cells; type: in vivo, mouse
Text: FIGS. 7A-N. Blocking anti-LILRB3 antibody prevents monocytic AML development. (FIG. 7A) Epitope binning of 30 high-affinity IgGs. (FIG. 7B) CFU assay of mouse MLL-AF9 AML cells in the presence of above IgGs (n=3 independent experiments). (FIG. 7C) Binding affinities of the two IgGs from bin #3. (FIG. 7D) Upper: Schematic of treatment. Lower: Percentages of GFP^+ MLL-AF9 mouse AIL cells in peripheral blood (PB), bone marrow (BM), spleen (SPL), and liver (LV) of mice transplanted with AML cells expressing B3-FL or B3delICD and injected with IgG or anti-LILRB3 #1 N297A (n=3 independent mice). (FIG. 7E) Overall survival of mice transplanted with indicated AML cells as above. (FIG. 7F) CFU assay of MLL-AF9 mouse AML cells expressing B3-FL or B3delICD in the presence of IgG or anti-LILRB3 #1 N297A (n=3 independent experiments) (FIG. 7G) Upper: Schematic of treatment. Recipient mice were injected with mouse IgG or anti-mCD8 to deplete CD8 T cells. Lower: Percentages of GFP^+ MLL-AF9 mouse AML cells in peripheral blood (PB), bone marrow (BM), spleen (SPL), and liver (LV) of mice transplanted with AML cells expressing B3-FL or B3delICD and injected with IgG or anti-LILRB3 #1 LALAPG (n=4 mice). […] The data are presented as mean±s.e.m, and p values were calculated by two-tailed t-test except for FIG. 7E, FIG. 7H, FIG. 7J and FIG. 7M by log-rank test. […]

[3] = Myeloid LysM-Cre driven LILRB3-transgenic C57BL/6 mice, hematopoiesis; type: in vivo, mouse
Protocol: FIGS. S7A-C. […] (FIG. S7a) Schematic of generation of myeloid-specific LILRB3 transgenic mice. (FIGS. S7b-c) LILRB3 is expressed on myeloid cells in peripheral blood (PB), spleen (SPL) and bone marrow (BM) of LysM-Cre driven LILRB3 transgenic mice, which were treated by anti-LILRB3 #1 antibody (n=2 mice) or IgG (n=3 mice). Shown are representative flow cytometry plots (FIG. S7b) and result summary (FIG. S7c).
LILRB3 transgenic mice. LILRB3 cDNA was constructed into pR26 CAG AsiSI/MluI. Then the plasmid was purified with high concentration in the absence of endotoxin. Cas9 RNA, gRNA targeting mouse Rosa26 locus and the LILRB3 plasmid co-injected into mouse oocytes at the transgenic core facility of UTSW. The LILRB3 positive mice were identified by LILRB3 specific primers and crossbred with LysMcre mice (JAX, 004781). The LILRB3^+LysMcre^+ mice were analyzed with co-expression of LILRB3 and Mac-1 or Gr-1 in peripheral blood, spleen and bone marrow.

B1: anti-LILRB3 #1 N297A: IgG #1 with Fc glycosylation N297A mutation, defective Fc-mediated effector functions (antibody, V domains shown)
VH: EVQLVESGGGVVQPGRSLRLSCAASGFTFSSYGMHWVRQAPGKGLEWVAFIRYDGSNKYYADSVKGRFTISRDNSKNTLYLQMNSLRAEDTAVYYCAKAGFSGWYYYGMDVWGQGTMVTVSS
VL: DIVMTQSPSSLSASVGDRLTITCRASQSISTYLNWYQQKPGKAPKLLIYGASSLQSGVPSRFSGSGSGTDFTLTISSLQPEDFATYFCQQSYGLPLTFGGGTKVDIK
CFU formation of AML cells expressing mutant LILRB3 that cannot interact with TRAF2 ([1]; AAA mutant (QEE509-511AAA)): did not decrease CFU formation | CFU formation by B3-FL AML cells ([1]; versus IgG): decreased CFU formation | leukemia development ([2]; NSG mice, THP-1 xenograft, versus controls): significantly delayed leukemia development | LILRB3 signaling in THP-1 cells (NF-κB target gene expression by qPCR) ([2]; THP-1 cells from BM of xenografted NSG mice): decreased | normal hematopoiesis and leukocytosis ([3]; LILRB3 transgenic mice): did not affect normal hematopoiesis and leukocytosis | toxicity ([3]; suggested from the transgenic mice): low toxicity
